Test results taken from patent US20140341881.

Experiments:
[1] = test system: CFP-VGSLR-YFP-6xHis substrate (peptide G1)
[2] = test system: T1, CFP-PDRHM-YFP-6xHis substrate (peptide F3)
T1 sequence: GALGGPDRHMGST

[3] = test system: CFP-LQRAI-YFP-6xHis substrate (peptide E8)
[4] = test system: CFP-RQTND-YFP-6xHis substrate (peptide C11)
[5] = test system: CFP-NNKLR-YFP-6xHis substrate (peptide E9)
[6] = test system: CFP-RGKTN-YFP-6xHis substrate (peptide D9)
[7] = test system: CFP-QRLRD-YFP-6xHis substrate (peptide F11)
[8] = test system: CFP-LSRDN-YFP-6xHis substrate (peptide E7)
[9] = test system: CFP-NQRSS-YFP-6xHis substrate (peptide E5)
[10] = test system: CFP-LSGGR-YFP-6xHis substrate (peptide E2)
[11] = test system: T2, CFP-AYGYK-YFP-6xHis substrate (peptide E1)
T2 sequence: GALGGAYGYKGST

[12] = test system: CFP-YQSLN-YFP-6xHis substrate (peptide F10)

human plasma kallikrein (PK), sequence (chain, as listed by the source): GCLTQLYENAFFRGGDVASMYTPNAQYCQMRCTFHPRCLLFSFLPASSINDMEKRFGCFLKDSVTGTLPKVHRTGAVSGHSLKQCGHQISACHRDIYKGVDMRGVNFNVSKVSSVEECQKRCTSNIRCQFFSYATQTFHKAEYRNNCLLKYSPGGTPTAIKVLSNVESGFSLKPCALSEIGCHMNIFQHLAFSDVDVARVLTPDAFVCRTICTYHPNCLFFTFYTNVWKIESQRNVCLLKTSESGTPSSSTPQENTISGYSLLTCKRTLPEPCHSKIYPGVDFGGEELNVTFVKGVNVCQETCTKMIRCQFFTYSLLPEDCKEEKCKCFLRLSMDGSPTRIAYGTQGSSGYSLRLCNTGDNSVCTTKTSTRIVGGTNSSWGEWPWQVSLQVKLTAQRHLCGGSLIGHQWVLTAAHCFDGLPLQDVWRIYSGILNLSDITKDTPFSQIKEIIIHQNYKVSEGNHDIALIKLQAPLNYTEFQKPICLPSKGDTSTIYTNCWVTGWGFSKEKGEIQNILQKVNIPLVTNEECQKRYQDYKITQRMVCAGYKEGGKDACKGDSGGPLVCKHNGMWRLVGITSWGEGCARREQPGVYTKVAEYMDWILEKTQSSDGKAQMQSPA

Row | Substance | Kcat/Km [1] | Kcat/Km [2] | Kcat/Km [3] | Kcat/Km [4] | Kcat/Km [5] | Kcat/Km [6] | Kcat/Km [7] | Kcat/Km [8] | Kcat/Km [9] | Kcat/Km [10] | Kcat/Km [11] | Kcat/Km [12]
1 | trypsin | 270000 M⁻¹ s⁻¹ | 319000 M⁻¹ s⁻¹ | 2.27e+06 M⁻¹ s⁻¹ | 260000 M⁻¹ s⁻¹ | 384000 M⁻¹ s⁻¹ | 2.11e+06 M⁻¹ s⁻¹ | 1.42e+06 M⁻¹ s⁻¹ | 246000 M⁻¹ s⁻¹ | 2.07e+06 M⁻¹ s⁻¹ | 4.68e+06 M⁻¹ s⁻¹ | 129000 M⁻¹ s⁻¹ | –
2 | human plasma kallikrein (PK) | – | – | 5000 M⁻¹ s⁻¹ | – | – | – | – | – | 5000 M⁻¹ s⁻¹ | – | – | –
3 | prostate specific antigen (PSA, hK3) | – | – | – | – | – | – | – | – | – | – | – | L.C.
4 | human kallikrein 2 (hK2) | 21000 M⁻¹ s⁻¹ | – | 25000 M⁻¹ s⁻¹ | 23000 M⁻¹ s⁻¹ | 12000 M⁻¹ s⁻¹ | 21000 M⁻¹ s⁻¹ | 32000 M⁻¹ s⁻¹ | 16000 M⁻¹ s⁻¹ | 14000 M⁻¹ s⁻¹ | 14000 M⁻¹ s⁻¹ | – | –
5 | human kallikrein hK1 | – | – | – | – | – | – | L.C. | – | – | – | – | –
